Sequences and labels used below:
B1: Soluble human α-Klotho ectodomain (αKlotho^ecto) (receptor)
chain: EPGDGAQTWARVSRPPAPEAAGLFQGTFPDGFLWAVGSAAYQTEGGWQQHGKGASIWDTFTHHPLAPPGDSRNASLPLGAPSPLQPATGDVASDSYNNVFRDTEALRELGVTHYRFSISWARVLPNGSAGVPNREGLRYYRRLLERLRELGVQPVVTLYHWDLPQRLQDAYGGWANRALADHFRDYAELCFRHFGGQVKYWITIDNPYVVAWHGYATGRLAPGIRGSPRLGYLVAHNLLLAHAKVWHLYNTSFRPTQGGQVSIALSSHWINPRRMTDHSIKECQKSLDFVLGWFAKPVFIDGDYPESMKNNLSSILPDFTESEKKFIKGTADFFALCFGPTLSFQLLDPHMKFRQLESPNLRQLLSWIDLEFNHPQIFIVENGWFVSGTTKRDDAKYMYYLKKFIMETLKAIKLDGVDVIGYTAWSLMDGFEWHRGYSIRRGLFYVDFLSQDKMLLPKSSALFYQKLIEKNGFPPLPENQPLEGTFPCDFAWGVVDNYIQVDTTLSQFTDLNVYLWDVHHSKRLIKVDGVVTKKRKSYCVDFAAIQPQIALLQEMHVTHFRFSLDWALILPLGNQSQVNHTILQYYRCMASELVRVNITPVVALWQPMAPNQGLPRLLARQGAWENPYTALAFAEYARLCFQELGHHVKLWITMNEPYTRNMTYSAGHNLLKAHALAWHVYNEKFRHAQNGKISIALQADWIEPACPFSQKDKEVAERVLEFDIGWLAEPIFGSGDYPWVMRDWLNQRNNFLLPYFTEDEKKLIQGTFDFLALSHYTTILVDSEKEDPIKYNDYLEVQEMTDITWLNSPSQVAVVPWGLRKVLNWLKFKYGDLPMYIISNGIDDGLHAEDDQLRVYYMQNYINEALKAHILDGINLCGYFAYSFNDRTAPRFGLYRYAADQFEPKASMKHYRKIIDSNGFPGPETLERFCPEEFTVCTECSFFHTRKS
notes: also called wild-type αKlotho^ecto; soluble αKlotho
B3: FGFR1c^ecto/ΔHBS (FGFR1c^ecto carrying K160Q/K163Q) (receptor)
chain: DNTKPNRMPVAPYWTSPEQMEQKLHAVPAAKTVKFKCPSSGTPNPTLRWLKNGKEFKPDHRIGGYKVRYATWSIIMDSVVPSDKGNYTCIVENEYGSINHTYQLDVVERSPHRPILQAGLPANKTVALGSNVEFMCKVYSDPQPHIQWLKHIEVNGSKIGPDNLPYVQILKTAGVNTTDKEMEVLHLRNVSFEDAGEYTCLAGNSIGLSHHSAWLTVLEALEER
notes: also called FGFR1c^ΔHBS
B7: FGFR1c^ecto/ΔHBS′ (FGFR1c^ecto carrying K207Q/R209Q) (receptor)
chain: DNTKPNRMPVAPYWTSPEKMEKKLHAVPAAKTVKFKCPSSGTPNPTLRWLKNGKEFKPDHRIGGYQVQYATWSIIMDSVVPSDKGNYTCIVENEYGSINHTYQLDVVERSPHRPILQAGLPANKTVALGSNVEFMCKVYSDPQPHIQWLKHIEVNGSKIGPDNLPYVQILKTAGVNTTDKEMEVLHLRNVSFEDAGEYTCLAGNSIGLSHHSAWLTVLEALEER
notes: also called FGFR1c^ΔHBS′

Data set [1] has as its target T1, FGF23 C-terminal tail peptide (FGF23^C-tail) (human).
T1 construct: The peptide may have been shorter, e.g. S180 to S205
T1 peptide: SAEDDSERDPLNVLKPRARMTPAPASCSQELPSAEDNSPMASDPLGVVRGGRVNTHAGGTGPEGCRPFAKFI
Nature of the data set: fluorescence dye-based thermal shift assay (SYPRO Orange), 1:1 mixture; over the peak of αKlotho^ecto alone the sheet prints 48 [left]. On the procedure: Fluorescence Dye-Based Thermal Shift Assay: SYPRO Orange dye (#S6650, ThermoFisher Scientific, USA) was used as the fluorescent probe. 15 μl of 20 μM solutions of protein samples (wild-type and mutated forms of FGF23; αKlotho^ecto or αKlotho^{ecto/ΔRBA} alone; 1:1 mixtures of αKlotho^ecto or αKlotho^{ecto/ΔRBA} with FGF23 C-terminal tail peptide) were mixed with 5 μl of working dye solution (1:25 dilution) in duplicate in PCR strips. A temperature gradient from 4° C. to 100° C. at 1° C./minute increment was carried out with a CFX96 Touch™ Real-Time PCR Detection System (Bio-Rad, USA). Fluorescence was recorded as a function of temperature in real time. The melting temperature (Tm) was calculated with StepOne software v2.2 as the maximum of the derivative of the resulting SYPRO Orange fluorescence curves.

Data set [2] has as its target B3. Nature of the data set: SEC-MALS of the 1:1:1 mixture with αKlotho^ecto and heparin hexasaccharide; the two proteins are seen together in the ternary complex [panel B]. As for the experimental part:
(§1) A Superdex 200 10/300 GL column (GE Healthcare, USA) was placed in-line between the HPLC pump (Waters 1525) and the HPLC UV (Waters 2998 Photodiode Array), laser light scattering, and refractive index detectors. Light scattering and refractive index detectors were calibrated following the manufacturer's guidelines. The refractive index increment (dn/dc) in which n is the refractive index and c is the concentration of the mixture of DDM and CHS in 20 mM Tris-HCl pH 8.0 buffer containing 300 mM NaCl, was determined offline using an Optilab T-rEX refractive index detector. Monomeric bovine serum albumin (#23210, Thermo Scientific, USA) was used as part of routine data quality control.
(§2) 60 ml or more of 25 mM HEPES pH 7.5 buffer containing 150 mM NaCl were passed through the system at a flow rate of 0.5 mL/min to equilibrate the Superdex 200 10/300 GL column and establish stable baselines for light scattering and refractive index detectors. Purified αKlotho^ecto, FGER1c^ecto (wild type or mutant), and FGF23 (wild type or mutant) proteins were mixed at a molar ratio of 1:1:1 and concentrated to 12.5 μM. 50 μl of protein samples with a molar equivalent of a heparin hexasaccharide (#H006, Iduron, Manchester, U.K.) were injected onto the gel filtration column, and the column eluent was continuously monitored for 280 nm absorbance, laser light scattering, and refractive index. […]
(In general: Size exclusion chromatography separates by hydrodynamic size, large species first.)

Data set [3] concerns the target B7. Described as above. As for the experimental part: as §1, §2
Data set [4] has as its target B1. Kind of data set: SEC-MALS, 1:1:1 mixture with FGFR1c^ecto and αKlotho^ecto. As for the experimental part: as §1, §2
The target in data set [5] is B1. Nature of the data set: SEC-MALS, 1:1:1 mixture with FGF23 and αKlotho^ecto. As for the experimental part:
as §1
60 ml or more of 25 mM HEPES pH 7.5 buffer containing 150 mM NaCl were passed through the system at a flow rate of 0.5 mL/min to equilibrate the Superdex 200 10/300 GL column and establish stable baselines for light scattering and refractive index detectors. Purified αKlotho^ecto, FGER1c^ecto (wild type or mutant), and FGF23 (wild type or mutant) proteins were mixed at a molar ratio of 1:1:1 and concentrated to 12.5 μM. 50 μl of protein samples with a molar equivalent of a heparin hexasaccharide (#H006, Iduron, Manchester, U.K.) were injected onto the gel filtration column, and the column eluent was continuously monitored for 280 nm absorbance, laser light scattering, and refractive index. In a separate set of experiments, 50 μl of 1:1:1 FGF23-FGFR1c^ecto-αKlotho^ecto ternary complex at 12.5 μM concentration was mixed with heparin hexasaccharide at molar ratios of 1:0.25, 1:0.5, 1:1, or 1:2, and the mixtures were injected onto the gel filtration column. 50 μl of ternary complex without added heparin hexasaccharide were run as a control. In yet another set of experiments, αKlotho^ecto (wild type or mutant) and FGER1c^ecto were mixed at a molar ratio of 1:1, and 50 μl of concentrated protein mixtures were injected onto the gel filtration column. 50 μl of concentrated αKlotho^ecto (wild type or mutant) alone were run as a control in these experiments. The analyses were performed at ambient temperature. Data were collected every second at a flow rate of 0.5 ml/min.

The text below walks through data of US20210054355A1 (NEW YORK UNIVERSITY, published 2021).

For B1, the “melting temperature (peak of derivative fluorescence) of the mixture” value in data set [1] is 54 °C.

B2: FGF23^ΔHBS (FGF23^WT carrying R140A/R143A) (ligand)
chain: YPNASPLLGSSWGGLIHLYTATARNSYHLQIHKNGHVDGAPHQTIYSALMIRSEDAGFVVITGVMSRRYLCMDFRGNIFGSHYFDPENCRFQHQTLENGYDVYHSPQYHFLVSLGAAKAAFLPGMNPPPYSQFLSRRNEIPLIHFNTPIPRQHTQSAEDDSERDPLNVLKPRARMTPAPAS
As to B2, the binding result in data set [2], in data set [3] and in data set [4] was “binds” each time.

Take B3: the binding result in data set [5] is given as “binds”.

B4: FGFR1c^ecto/ΔSLBS′ (FGFR1c^ecto carrying V221D) (receptor)
chain: DNTKPNRMPVAPYWTSPEKMEKKLHAVPAAKTVKFKCPSSGTPNPTLRWLKNGKEFKPDHRIGGYKVRYATWSIIMDSVDPSDKGNYTCIVENEYGSINHTYQLDVVERSPHRPILQAGLPANKTVALGSNVEFMCKVYSDPQPHIQWLKHIEVNGSKIGPDNLPYVQILKTAGVNTTDKEMEVLHLRNVSFEDAGEYTCLAGNSIGLSHHSAWLTVLEALEER
notes: also called FGFR1c^ΔSLBS′
Consider B4, for which the binding result in data set [5] is recorded as “binds”.

B5: FGFR1c^ecto/ΔSLBS (FGFR1c^ecto carrying I203E) (receptor)
chain: DNTKPNRMPVAPYWTSPEKMEKKLHAVPAAKTVKFKCPSSGTPNPTLRWLKNGKEFKPDHREGGYKVRYATWSIIMDSVVPSDKGNYTCIVENEYGSINHTYQLDVVERSPHRPILQAGLPANKTVALGSNVEFMCKVYSDPQPHIQWLKHIEVNGSKIGPDNLPYVQILKTAGVNTTDKEMEVLHLRNVSFEDAGEYTCLAGNSIGLSHHSAWLTVLEALEER
notes: also called FGFR1c^ΔSLBS
As to B5, the binding result in data set [5] is “binds”.

B6: FGFR1c^ecto/ΔRRBS (FGFR1c^ecto carrying A171D) (receptor)
chain: DNTKPNRMPVAPYWTSPEKMEKKLHAVPADKTVKFKCPSSGTPNPTLRWLKNGKEFKPDHRIGGYKVRYATWSIIMDSVVPSDKGNYTCIVENEYGSINHTYQLDVVERSPHRPILQAGLPANKTVALGSNVEFMCKVYSDPQPHIQWLKHIEVNGSKIGPDNLPYVQILKTAGVNTTDKEMEVLHLRNVSFEDAGEYTCLAGNSIGLSHHSAWLTVLEALEER
notes: also called FGFR1^ΔRRBS
Take B6: in data set [5], the binding result was “binds”.

In the case of B7, the binding result in data set [5] is given as “binds”.
